T1: human IL-2 receptor (IL-2Rα/IL-2Rβ/γc) (human, UniProt P01589 22-272; P14784 27-551; P31785 23-369)
T1 sequence 1: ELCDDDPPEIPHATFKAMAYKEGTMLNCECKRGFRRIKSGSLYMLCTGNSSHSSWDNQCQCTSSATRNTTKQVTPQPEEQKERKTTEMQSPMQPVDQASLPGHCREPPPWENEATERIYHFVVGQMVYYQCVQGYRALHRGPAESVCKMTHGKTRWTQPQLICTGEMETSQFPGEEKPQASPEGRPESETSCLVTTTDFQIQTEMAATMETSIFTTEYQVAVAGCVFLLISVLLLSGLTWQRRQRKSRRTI
T1 sequence 2: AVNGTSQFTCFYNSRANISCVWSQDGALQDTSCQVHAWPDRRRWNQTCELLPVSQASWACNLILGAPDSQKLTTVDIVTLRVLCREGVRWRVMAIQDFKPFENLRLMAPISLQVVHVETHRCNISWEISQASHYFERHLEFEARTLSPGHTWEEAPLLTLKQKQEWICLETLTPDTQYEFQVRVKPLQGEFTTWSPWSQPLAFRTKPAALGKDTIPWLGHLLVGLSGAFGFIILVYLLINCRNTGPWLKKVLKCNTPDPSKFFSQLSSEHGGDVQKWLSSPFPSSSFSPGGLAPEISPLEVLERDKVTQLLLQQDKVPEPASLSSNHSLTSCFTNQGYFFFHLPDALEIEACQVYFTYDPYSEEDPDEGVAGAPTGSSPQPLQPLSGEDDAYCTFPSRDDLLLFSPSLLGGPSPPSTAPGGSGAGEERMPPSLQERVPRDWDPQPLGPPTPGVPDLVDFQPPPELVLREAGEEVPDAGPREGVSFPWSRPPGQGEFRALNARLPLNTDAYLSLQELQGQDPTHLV
T1 sequence 3: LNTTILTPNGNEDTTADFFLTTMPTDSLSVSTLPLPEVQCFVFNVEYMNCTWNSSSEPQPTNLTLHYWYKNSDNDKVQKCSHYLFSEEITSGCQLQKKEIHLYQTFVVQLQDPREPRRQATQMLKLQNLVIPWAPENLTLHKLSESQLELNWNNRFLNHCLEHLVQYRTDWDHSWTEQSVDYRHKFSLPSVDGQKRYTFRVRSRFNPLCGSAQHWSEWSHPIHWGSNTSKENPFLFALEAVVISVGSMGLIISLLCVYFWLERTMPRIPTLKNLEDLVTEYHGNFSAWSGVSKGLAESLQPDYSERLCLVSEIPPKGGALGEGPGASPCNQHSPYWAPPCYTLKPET


Molecular target: T1, human IL-2 receptor (IL-2Rα/IL-2Rβ/γc)
Experiment: cell-based or functional assay

EC50 (nM) pSTAT5, NK, human PBMCs [nM] | EC50 (nM) pSTAT5, Treg, human PBMCs | Fold Max signal (% pSTAT5+) Treg/NK [fold] | Max signal (% pSTAT5+), NK [% pSTAT5+] | Max signal (% pSTAT5+), Treg [% pSTAT5+] | fold EC50 NK/Treg [fold] | Binder
0.548 | 0.00208 nM | 5 | 19 | 89 | 263 | DC00057 (other) chain 1: QVQLVESGGGLVQPGGSLRLSCATSGFTFRNNFMSWVRQAPGKGLEWVSTISYGGESTTYAESVKGRFTISRDNAKNTLYLQMNNLKPEDTAVYYCAKATSYDSIRSGSRGQGTQVTVSSGGGGSGGGGSGGGGSEVQLVESGGGLVQTGGSLRLSCAASGGTFSRDAMAWFRQVPGKEREFVALISWSGATTNYADSVKGRFAISRDNGKNTVYLQMNRLKPADTAIYYCAADRRPMGSRSYFEPTEYDDWGQGTQVTVSSGGGGSGGGGSGGGGSDKTHTCPPCPAPEAAGGPSVFLFPPKPKDTLMISRTPEVTCVVVDVSHEDPEVKFNWYVDGVEVHNAKTKPREEQYNSTYRVVSVLTVLHQDWLNGKEYKCKVSNKALGAPIEKTISKAKGQPREPQVYTLPPSRDELTKNQVSLTCLVKGFYPSDIAVEWESNGQPENNYKTTPPVLDSDGSFLLYSKLTVDKSRWQQGNVFSCSVMHEALHNHYTQKSLSLSPGK chain 2: QVQLVESGGGLVQPGGSLRLSCATSGFTFRNNFMSWVRQAPGKGLEWVSTISYGGESTTYAESVKGRFTISRDNAKNTLYLQMNNLKPEDTAVYYCAKATSYDSIRSGSRGQGTQVTVSSGGGGSGGGGSGGGGSEVQLVESGGGLVQTGGSLRLSCAASGGTFSRDAMAWFRQVPGKEREFVALISWSGATTNYADSVKGRFAISRDNGKNTVYLQMNRLKPADTAIYYCAADRRPMGSRSYFEPTEYDDWGQGTQVTVSSGGGGSGGGGSGGGGSQVQLVESGGGLVQAGGSLTLSCAAPGRTFGTDVVGWFRQAPGKEREFVASISRSGDGIYYDDSVKGRFTISRNNAWNTVNLQMNSLKVEDTAVYYCAAGDGWSTYDYWGQGTQVTVSSGGGGSGGGGSGGGGSDKTHTCPPCPAPEAAGGPSVFLFPPKPKDTLMISRTPEVTCVVVDVSHEDPEVKFNWYVDGVEVHNAKTKPREEQYNSTYRVVSVLTVLHQDWLNGKEYKCKVSNKALGAPIEKTISKAKGQPREPQVYTLPPSRDELTKNQVSLTCLVKGFYPSDIAVEWESNGQPENNYKTTPPVLDSDGSFFLYSRLTVDKSRWQQGNVFSCSVMHEALHNHYTQKSLSLSPGK
0.165 | 0.00427 nM | 9 | 5 | 44 | 39 | DC00061 (other) chain 1: QVQLVESGGGLVQPGGSLRLSCATSGFTFRNNFMSWVRQAPGKGLEWVSTISYGGESTTYAESVKGRFTISRDNAKNTLYLQMNNLKPEDTAVYYCAKATSYDSIRSGSRGQGTQVTVSSGGGGSGGGGSGGGGSEVQLVESGGGLVQTGGSLRLSCAASGGTFSRDAMAWFRQVPGKEREFVALISWSGATTNYADSVKGRFAISRDNGKNTVYLQMNRLKPADTAIYYCAADRRPMGSRSYFEPTEYDDWGQGTQVTVSSGGGGSGGGGSGGGGSDKTHTCPPCPAPEAAGGPSVFLFPPKPKDTLMISRTPEVTCVVVDVSHEDPEVKFNWYVDGVEVHNAKTKPREEQYNSTYRVVSVLTVLHQDWLNGKEYKCKVSNKALGAPIEKTISKAKGQPREPQVYTLPPSRDELTKNQVSLTCLVKGFYPSDIAVEWESNGQPENNYKTTPPVLDSDGSFLLYSKLTVDKSRWQQGNVFSCSVMHEALHNHYTQKSLSLSPGK chain 2: QVQLVESGGGLVQAGGSLTLSCAAPGRTFGTDVVGWFRQAPGKEREFVASISRSGDGIYYDDSVKGRFTISRNNAWNTVNLQMNSLKVEDTAVYYCAAGDGWSTYDYWGQGTQVTVSSGGGGSGGGGSGGGGSQVQLVESGGGLVQPGGSLRLSCATSGFTFRNNFMSWVRQAPGKGLEWVSTISYGGESTTYAESVKGRFTISRDNAKNTLYLQMNNLKPEDTAVYYCAKATSYDSIRSGSRGQGTQVTVSSDKTHTCPPCPAPEAAGGPSVFLFPPKPKDTLMISRTPEVTCVVVDVSHEDPEVKFNWYVDGVEVHNAKTKPREEQYNSTYRVVSVLTVLHQDWLNGKEYKCKVSNKALGAPIEKTISKAKGQPREPQVYTLPPSRDELTKNQVSLTCLVKGFYPSDIAVEWESNGQPENNYKTTPPVLDSDGSFFLYSRLTVDKSRWQQGNVFSCSVMHEALHNHYTQKSLSLSPGK
0.0401 | 0.252 pM | 6 | 14 | 86 | 159 | DC00059 (other) chain 1: QVQLVESGGGLVQPGGSLRLSCATSGFTFRNNFMSWVRQAPGKGLEWVSTISYGGESTTYAESVKGRFTISRDNAKNTLYLQMNNLKPEDTAVYYCAKATSYDSIRSGSRGQGTQVTVSSGGGGSGGGGSGGGGSEVQLVESGGGLVQTGGSLRLSCAASGGTFSRDAMAWFRQVPGKEREFVALISWSGATTNYADSVKGRFAISRDNGKNTVYLQMNRLKPADTAIYYCAADRRPMGSRSYFEPTEYDDWGQGTQVTVSSGGGGSGGGGSGGGGSDKTHTCPPCPAPEAAGGPSVFLFPPKPKDTLMISRTPEVTCVVVDVSHEDPEVKFNWYVDGVEVHNAKTKPREEQYNSTYRVVSVLTVLHQDWLNGKEYKCKVSNKALGAPIEKTISKAKGQPREPQVYTLPPSRDELTKNQVSLTCLVKGFYPSDIAVEWESNGQPENNYKTTPPVLDSDGSFLLYSKLTVDKSRWQQGNVFSCSVMHEALHNHYTQKSLSLSPGK chain 2: QVQLVESGGGLVQAGGSLTLSCAAPGRTFGTDVVGWFRQAPGKEREFVASISRSGDGIYYDDSVKGRFTISRNNAWNTVNLQMNSLKVEDTAVYYCAAGDGWSTYDYWGQGTQVTVSSGGGGSGGGGSGGGGSQVQLVESGGGLVQPGGSLRLSCATSGFTFRNNFMSWVRQAPGKGLEWVSTISYGGESTTYAESVKGRFTISRDNAKNTLYLQMNNLKPEDTAVYYCAKATSYDSIRSGSRGQGTQVTVSSGGGGSGGGGSGGGGSEVQLVESGGGLVQTGGSLRLSCAASGGTFSRDAMAWFRQVPGKEREFVALISWSGATTNYADSVKGRFAISRDNGKNTVYLQMNRLKPADTAIYYCAADRRPMGSRSYFEPTEYDDWGQGTQVTVSSGGGGSGGGGSGGGGSDKTHTCPPCPAPEAAGGPSVFLFPPKPKDTLMISRTPEVTCVVVDVSHEDPEVKFNWYVDGVEVHNAKTKPREEQYNSTYRVVSVLTVLHQDWLNGKEYKCKVSNKALGAPIEKTISKAKGQPREPQVYTLPPSRDELTKNQVSLTCLVKGFYPSDIAVEWESNGQPENNYKTTPPVLDSDGSFFLYSRLTVDKSRWQQGNVFSCSVMHEALHNHYTQKSLSLSPGK
1.87 | 0.0025 nM | 3 | 34 | 97 | 748 | DC00058 (other) chain 1: QVQLVESGGGLVQPGGSLRLSCATSGFTFRNNFMSWVRQAPGKGLEWVSTISYGGESTTYAESVKGRFTISRDNAKNTLYLQMNNLKPEDTAVYYCAKATSYDSIRSGSRGQGTQVTVSSGGGGSGGGGSGGGGSEVQLVESGGGLVQTGGSLRLSCAASGGTFSRDAMAWFRQVPGKEREFVALISWSGATTNYADSVKGRFAISRDNGKNTVYLQMNRLKPADTAIYYCAADRRPMGSRSYFEPTEYDDWGQGTQVTVSSGGGGSGGGGSGGGGSDKTHTCPPCPAPEAAGGPSVFLFPPKPKDTLMISRTPEVTCVVVDVSHEDPEVKFNWYVDGVEVHNAKTKPREEQYNSTYRVVSVLTVLHQDWLNGKEYKCKVSNKALGAPIEKTISKAKGQPREPQVYTLPPSRDELTKNQVSLTCLVKGFYPSDIAVEWESNGQPENNYKTTPPVLDSDGSFLLYSKLTVDKSRWQQGNVFSCSVMHEALHNHYTQKSLSLSPGK chain 2: QVQLVESGGGLVQAGGSLTLSCAAPGRTFGTDVVGWFRQAPGKEREFVASISRSGDGIYYDDSVKGRFTISRNNAWNTVNLQMNSLKVEDTAVYYCAAGDGWSTYDYWGQGTQVTVSSGGGGSGGGGSGGGGSEVQLVESGGGLVQTGGSLRLSCAASGGTFSRDAMAWFRQVPGKEREFVALISWSGATTNYADSVKGRFAISRDNGKNTVYLQMNRLKPADTAIYYCAADRRPMGSRSYFEPTEYDDWGQGTQVTVSSGGGGSGGGGSGGGGSQVQLVESGGGLVQPGGSLRLSCATSGFTFRNNFMSWVRQAPGKGLEWVSTISYGGESTTYAESVKGRFTISRDNAKNTLYLQMNNLKPEDTAVYYCAKATSYDSIRSGSRGQGTQVTVSSDKTHTCPPCPAPEAAGGPSVFLFPPKPKDTLMISRTPEVTCVVVDVSHEDPEVKFNWYVDGVEVHNAKTKPREEQYNSTYRVVSVLTVLHQDWLNGKEYKCKVSNKALGAPIEKTISKAKGQPREPQVYTLPPSRDELTKNQVSLTCLVKGFYPSDIAVEWESNGQPENNYKTTPPVLDSDGSFFLYSRLTVDKSRWQQGNVFSCSVMHEALHNHYTQKSLSLSPGK

— US20240409645A1 (DUALYX, published 2024)
